Where a chain is given by its changes, count along the chain named. “Also recorded” adds a separate entry of the source. Where two headings read alike, the source gives them in different places.
Experiments:
[1] = system: rev protein; assay: Saturation filter binding of rev to labelled RNA transcripts; design: species or system HIV-1; details: for rev binding, result in words: saturation filter binding, 0 to 10 nM rev
Method: Rev protein was expressed and purified as described (33) or further purified by chromatography on Heparin-Sepharose. Rev was applied to Heparin columns in a buffer containing 200 mM NaCl/50mM Tris-HCl pH8.0/1 mM DTT/0.1 mM EDTA 0.1% Triton X-100 and eluted in buffer containing 2M NaCl. After gel filtration on Superose 6 (prep grade) columns equilibrated with 200 mM NaCl/50 mM Tris-HCl pH8.0/1 mM DTT/0.1 mM EDTA, the rev protein appeared homogeneous on SDS-polyacrylamide gels and free of RNA contaminants. Rev concentrations were determined by amino acid analysis of the purified protein.
DNA inserts containing RRE-related sequences were cloned between the EcoRI (5') and HindIII (3') sites of pGEM 1, either by cloning PCR products or by cloning annealed pairs of synthetic oligonucleotides. RNA transcripts for binding experiments were prepared by transcription of HindIII cut plasmids using T7 RNA polymerase and purified by gel electrophoresis. These transcripts carry a 5' extension of 15 nucleotides contributed by the vector and an extra A residue at the 3' end from the HindIII site, as described above.
For filter binding assays, each reaction mixture contained 20 pg of uniformly labelled RNA probe (approximately 500 cpm/pg RNA), […] sonicated salmon sperm DNA, […] yeast tRNA, 40 units RNasin (Promega) in […] TK buffer (43 mM Tris-HCl pH8.0, 50 mM KCl). Incubation was at 4° C. for 15 minutes in the presence of 0 to 10 nM purified rev protein. To measure binding, each reaction mixture was applied under gentle vacuum to a 0.45 um Millipore filter which had been pre-wetted with TK buffer. The filters were washed with […] TK buffer, dried, and radioactivity counted by liquid scintillation.
Filter binding assays contained 20 pg uniformly labelled RNA probe (500 dpm per pg RNA), 1 μg salmon sperm DNA, 0.45 μg yeast tRNA and 40 units RNasin (Promega) in 500 μl buffer containing 43 mM Tris-HCl pH 8.0, 50 mM KCl. Mutations in the purine-rich "bubble" sequence (numbered as shown in FIG. 2) were introduced into the R33 stem-loop structure (FIG. 3d) by site-directed mutagenesis.

[2] = system: rev protein; assay: Competition filter binding against labelled RRE RNA (FIG. 11); design: species or system HIV-1; details: 17 nM rev, 0.5 pM labelled RRE RNA; read-out: D1/2, competitor concentration reducing rev binding to labelled RRE RNA by 50%
Method: Unlabelled RRE RNA was an effective competitor and reduced rev binding to the labelled RRE RNA by 50% of the initial value with a D1/2 =2 nM. The short R33 transcript was also an effective competitor and reduced rev binding with D1/2 =8 nM. The mutations in the "bubble" either reduce or abolish specific rev binding.
Filter binding reactions contained 17 nM rev, 0.5 pM labelled RRE RNA and between 0-100 nM unlabelled competitor RNA. Empty squares, RRE RNA competitor; filled circles, R33 RNA competitor; filled triangles, R34 RNA competitor; empty triangles, R35 RNA competitor.

[3] = biological target: T1, HIV-1 Rev (Human immunodeficiency virus 1, UniProt P04618 P04618:1-116); assay: filter; same affinity as full-length RRE; details: tags: none stated; heparin-Sepharose and Superose 6 purified; chain copies: oligomer (tetramer likely; about 4 per RBC6, 6-8 per full-length RRE at 50 mM KCl) stated; label: 32P uniform; stem-loop with purine-rich bubble
[4] = biological target: T1, HIV-1 Rev; assay: filter; 50 mM KCl, 4 C; 21% bound at 10 nM rev; details: tags: none stated; heparin-Sepharose and Superose 6 purified; chain copies: oligomer (tetramer likely; about 4 per RBC6, 6-8 per full-length RRE at 50 mM KCl) stated; label: 32P uniform
[5] = biological target: T1, HIV-1 Rev; assay: filter; 50 mM KCl, 4 C; 18% bound at 10 nM rev; details: tags: none stated; heparin-Sepharose and Superose 6 purified; chain copies: oligomer (tetramer likely; about 4 per RBC6, 6-8 per full-length RRE at 50 mM KCl) stated; label: 32P uniform
[6] = biological target: T1, HIV-1 Rev; assay: filter; 50 mM KCl, 4 C; 40% bound at 10 nM rev; details: tags: none stated, heparin-Sepharose and Superose 6 purified, chain copies: oligomer (tetramer likely; about 4 per RBC6, 6-8 per full-length RRE at 50 mM KCl) stated, label: 32P uniform
[7] = biological target: T1, HIV-1 Rev; assay: competition; D1/2 vs labelled RRE RNA, 17 nM rev; details: tags: none stated; heparin-Sepharose and Superose 6 purified; chain copies: oligomer (tetramer likely; about 4 per RBC6, 6-8 per full-length RRE at 50 mM KCl) stated; label: 32P uniform; stem-loop with purine-rich bubble on 9-bp stem
[8] = biological target: T1, HIV-1 Rev; assay: filter; shortest T7 transcript with full affinity; details: tags: none stated; heparin-Sepharose and Superose 6 purified; chain copies: oligomer (tetramer likely; about 4 per RBC6, 6-8 per full-length RRE at 50 mM KCl) stated; label: 32P uniform; stem-loop with purine-rich bubble
[9] = biological target: T1, HIV-1 Rev; assay: filter; normal rev binding; details: tags: none stated; heparin-Sepharose and Superose 6 purified; chain copies: oligomer (tetramer likely; about 4 per RBC6, 6-8 per full-length RRE at 50 mM KCl) stated; label: 32P uniform; stem-loop with purine-rich bubble
[10] = biological target: T1, HIV-1 Rev; assay: filter; details: tags: none stated, heparin-Sepharose and Superose 6 purified, chain copies: oligomer (tetramer likely; about 4 per RBC6, 6-8 per full-length RRE at 50 mM KCl) stated, label: 32P uniform
[11] = biological target: T1, HIV-1 Rev; assay: filter; bubble not formed; details: tags: none stated; heparin-Sepharose and Superose 6 purified; chain copies: oligomer (tetramer likely; about 4 per RBC6, 6-8 per full-length RRE at 50 mM KCl) stated; label: 32P uniform
[12] = biological target: T1, HIV-1 Rev; assay: competition; competes with same affinity as RBC6; details: tags: none stated; heparin-Sepharose and Superose 6 purified; chain copies: oligomer (tetramer likely; about 4 per RBC6, 6-8 per full-length RRE at 50 mM KCl) stated; RNA three-way junction stabilising bubble (all strands RNA)
[13] = Table I, filter binding, 20 pg labelled RNA probe, 50 mM KCl, read-out: Kd

Molecule: R33: stem-loop of residues 33 to 63, A56 deleted, inserted on top of a stem containing 9 base pairs; wild-type bubble (GGGAGACCGGAAUUCUGGGCGCAGUGUCAUUGACGCUGCGGUACAGAAUUCCGGCA; chemistry not given here)
- % RNA bound (10 nM rev) ([1]; Table I, 50 mM KCl): 40%
- Kd [1, 13]: 3 nM
- rev binding, result in words [1]: Normal rev binding
- IC50 [2]: 8 nM

Molecule: R35 (GGGAGACCGGAAUUCUGGCGCAGUGUCAUUGACGCUGCGGUACAGAAUUCCGGCA; chemistry not given here)
- % RNA bound (10 nM rev) ([1]; Table I, 50 mM KCl): 35%
- Kd [1, 13]: 4 nM
- Kd ([1]; saturation filter binding of T7 transcripts, read-out: Kd for rev binding): 4 nM
- rev binding, result in words [1]: reduced rev binding slightly
- IC50 [2]: 16 nM

Molecule: R34 (GGGAGACCGGAAUUCUGCGCAGUGUCAUUGACGCUGCGGUACAGAAUUCCGGC; chemistry not given here)
- % RNA bound (10 nM rev) ([1]; Table I, 50 mM KCl): 3%
- rev binding, result in words [1]: abolished specific rev binding; also recorded: does not bind rev with measurable affinity
- IC50 [2]: > 250 nM

B1: RRE fragment 26-92 (ssRNA)
RNA: GGGAGACCGGAAUUCAGCACUAUGGGCGCAGUGUCAUUGACGCUGACGGUACAGGCCAGACAAUUAUUGUCUGGUAUAGUGCA
- binding result [3]: binds

B2: R55 (ssRNA)
RNA: GGGAGACCGGAAUUCUAGGCGCAGUGUCAUUGACGCUGCGGUAUAGAAUUCCGGCA
modifications: [-]
- Kd [4]: 4 nM

B3: R42 (ssRNA)
RNA: B2 RNA with A17G, G21C, C39G, U44C
modifications: [none]
- Kd [5]: 8 nM

B4: R33 (ssRNA)
RNA: B2 RNA with A17G, U44C
- Kd ([6]; stem-loop with purine-rich bubble on 9-bp stem): 3 nM
- IC50 [7]: 8 nM

B5: R52 (ssRNA)
RNA: B2 RNA with A17G, U42C, U44C
modifications: [-]
- Kd [5]: 5 nM

B6: R57 (ssRNA)
RNA: B2 RNA with A17G, G21A, C39U, U44C
modifications: [-]
- Kd [6]: 3 nM

Molecule: GGGAGACCGGAAUUCUGGGCGCAGUGUCAUUGACGCUGACGGUACAGGCA (ssRNA) [R19 (RRE 33-66)]
- Kd [8]: 1.73 nM

Molecule: GGGAGACCGGAAUUCUGGGCGCAGUGUCAAUGACGCUGACGGUACAGGCA (ssRNA) [R29 (apex loop antisense)]
- binding result [9]: binds

Molecule: GGGAGACCGGAAUUCUGGGCGCUUCGGCGGUACAGA (ssRNA) [R38 (upper stem-loop replaced by CUUCGG)]
- Kd ([10]; hairpin with purine-rich bubble): 1.73 nM

B7: RRE fragment 1-96 (ssRNA)
RNA: GGGAGACCGGAAUUCCCUUGGGUUCUUGGGAGCAGCAGGAAGCACUAUGGGCGCAGUGUCAUUGACGCUGACGGUACAGGCCAGACAAUUAUUGUCUGGUAUAGUGCAACA
- binding result [3]: binds

B8: RRE fragment 26-72 (ssRNA)
RNA: GGGAGACCGGAAUUCAGCACUAGGGCGCAGUGUCAUUGACGCUGAGGGUACAGGCCAGACAAUUAUA
- binding result [11]: no binding

Molecule: GGGAGACCGGAAUUCUGGGCGCAGUGUCAUUGACGCUGCGGUACAGGCA (ssRNA) [R22 (A56 deleted)]
- Kd ([10]; stem-loop with purine-rich bubble): 1.73 nM

Molecule: GGGAGACCGGAAUUCUGGGCGCAGCGUCAUUGACACUGCGGUACAGGCA (ssRNA) [R30 (upper stem antisense)]
- binding result [9]: binds

B9: TWJ-U (structured_DNA)
DNA 1: GCACUAUGGGCGCAGC
DNA 2: GCUGCGGUACAGGCCAGA
DNA 3: UCUGGUAUAGUGC
- binding result [12]: binds
